Data on 1 substance can be found in article PMC4189725.

For this test, the target named is CD40-FasL. Briefly: SEC; gel filtration (Superdex 200) of CD40-FasL conditioned medium; fractions analysed by Western blot (anti FasL) and CD40 ELISA. (In gel filtration, larger molecules generally elute earlier.)

A word on the stoichiometry N: it is a count of units in the complex or per binding partner. In turn, CD40-FasL yielded a stoichiometry N of 6.
